Paper PMC11649247

Biological target: Mycobacterium tuberculosis polyketide synthase 13 (Mt-Pks13) (Mycobacterium tuberculosis) (UniProt I6X8D2)
Assay: AUC; sedimentation velocity at pH 6 (of a series from pH 6 to 8); triple buffer (20 mM each sodium acetate, Tris/HCl, CHES), 150 mM NaCl, 2.5 mM βME; 30 000 r.p.m.; 4 °C or 20 °C; dimer to monomers

Q: For “Mycobacterium tuberculosis polyketide synthase 13 (Mt-Pks13) (from UniProt I6X8D2 1-1733) (enzyme)”, which stoichiometry N is on record?
A: 2
